From the RNAGym collection of RNA variant scans (doi:10.7554/elife.80360)

B1: HDV Ribozyme (parent)
chain: GGCCGGCAUGGUCCCAGCCUCCUCGCUGGCGCCGGCUGGGCAACAUUCCGAGGGGACCGUCCCCUCGGUAAUGGCGAAUGGGACCCA

Variants of: B1
Experiment: self-cleavage, relative activity (ratio to wild type); higher = more cleavage; co-transcriptional
For U37G C63U, the self-cleavage was 0.151. Work on U37G C63G yielded a self-cleavage of 0.0615. With U37C C66A the self-cleavage was 1.25. Work on U37C C48G yielded a self-cleavage of 1.04. U37C C48A gave a self-cleavage of 1.13. With U37G C44A the self-cleavage was 0.0791. With U37G C44G the self-cleavage was 0.0692. Variant U37C C64G has a self-cleavage of 0.604. Work on U37C C64U yielded a self-cleavage of 1.19. U37G C84A showed a self-cleavage of 0.161. U37C G73C gave a self-cleavage of 0.356. U37C G73A gave a self-cleavage of 0.493. For U37C G73U, the self-cleavage was 0.185. With U37G A77G the self-cleavage was 0.0831. In the case of U37G A77C, the self-cleavage is reported as 0.158. Variant U37C U72C has a self-cleavage of 0.462. Variant U37C U72G has a self-cleavage of 0.429. U37C U72A showed a self-cleavage of 0.356. In the case of U37G G80C, the self-cleavage is reported as 0.0449. In the case of U37G G80U, the self-cleavage is reported as 0.203. U37G G80A showed a self-cleavage of 0.0308. U37C G67A gave a self-cleavage of 1. In the case of U37C A56G, the self-cleavage is reported as 1.23. U37C A56U gave a self-cleavage of 1.09. For U37G A42G, the self-cleavage was 0.0723. In the case of U37C G53U, the self-cleavage is reported as 1.13. For U37C A77C, the self-cleavage was 0.415. Work on U37C A77U yielded a self-cleavage of 0.388. Variant U37C A77G has a self-cleavage of 1.03. For U37G G73C, the self-cleavage was 0.0791. U37G G73A gave a self-cleavage of 0. Work on U37C G40U yielded a self-cleavage of 0.456. With U37C G40C the self-cleavage was 0.262. In the case of U37G G82U, the self-cleavage is reported as 0.0773. U37G G82C gave a self-cleavage of 0.128. U37G G67U showed a self-cleavage of 0.18. For U37G G67C, the self-cleavage was 0.229. U37G C86A gave a self-cleavage of 0.185. U37C C62A showed a self-cleavage of 1.05. With U37C C84G the self-cleavage was 0.587. With U37C C84A the self-cleavage was 0.697. U37C C44G gave a self-cleavage of 0.63. With U37C C44A the self-cleavage was 0.499. Work on U37G U79G yielded a self-cleavage of 0.115. Variant U37G U79C has a self-cleavage of 0. With U37G G74C the self-cleavage was 0.0361. With U37G G53U the self-cleavage was 0.157. In the case of U37G A71C, the self-cleavage is reported as 0.0831. Variant U37G A71U has a self-cleavage of 0.0594. U37G A71G gave a self-cleavage of 0.0594. For U37G U65C, the self-cleavage was 0.123. Work on U37G A43U yielded a self-cleavage of 0.208. For U37G A43C, the self-cleavage was 0.133. In the case of U37G A43G, the self-cleavage is reported as 0. For U37G C61U, the self-cleavage was 0.138. U37G G39U gave a self-cleavage of 0. Variant U37G C58A has a self-cleavage of 0.145. With U37G C58G the self-cleavage was 0.369. U37G C58U gave a self-cleavage of 0.0504. With U37G A83U the self-cleavage was 0.156. Variant U37G A83G has a self-cleavage of 0.138. U37G A83C showed a self-cleavage of 0.0678. Work on U37C G74C yielded a self-cleavage of 0.193. Work on U37C G68C yielded a self-cleavage of 0.682. In the case of U37C G68U, the self-cleavage is reported as 1.05. Work on U37G G55U yielded a self-cleavage of 0.214. In the case of U37G G55A, the self-cleavage is reported as 0.0831. With U37G G55C the self-cleavage was 0.141. For U37G U60G, the self-cleavage was 0.0831. Variant U37C C41A has a self-cleavage of 0.929. Work on U37C C41U yielded a self-cleavage of 1.29. Variant U37C C58U has a self-cleavage of 0.997. In the case of U37C C58G, the self-cleavage is reported as 0.872. For U37C C58A, the self-cleavage was 1.22. Work on U37C G81U yielded a self-cleavage of 0.211. Variant U37C G81C has a self-cleavage of 0.138. U37C G81A gave a self-cleavage of 0.283. In the case of U37C A83C, the self-cleavage is reported as 0.383. Variant G38A A45C has a self-cleavage of 0.0804. Variant U37C A43C has a self-cleavage of 0.308. U37C A45G showed a self-cleavage of 0.762. Variant U37C A45C has a self-cleavage of 0.539. U37G A87G showed a self-cleavage of 0.0455. Variant U37G A87U has a self-cleavage of 0.148. U37G A87C showed a self-cleavage of 0.0764. With U37C C63A the self-cleavage was 1.03. U37C C63G gave a self-cleavage of 0.965. U37G U47C gave a self-cleavage of 0.128. U37G U47A gave a self-cleavage of 0.158. With U37G G81A the self-cleavage was 0. U37G C57U gave a self-cleavage of 0.0405. Work on U37G U69G yielded a self-cleavage of 0.0723. U37G U69A gave a self-cleavage of 0.119. In the case of U37G U69C, the self-cleavage is reported as 0.128. Work on U37C C61U yielded a self-cleavage of 0.884. In the case of G38A A42C, the self-cleavage is reported as 0.148. For G38A A42U, the self-cleavage was 0. For G38A A42G, the self-cleavage was 0.095. U37G U72G showed a self-cleavage of 0.115. Work on G38A yielded a self-cleavage of 0.157. For U37G A51U, the self-cleavage was 0. With U37G A51C the self-cleavage was 0.0504. Variant U37C G50U has a self-cleavage of 0.923. Work on U37C U60A yielded a self-cleavage of 1.27. With U37C U60C the self-cleavage was 0.864. In the case of U37G A70G, the self-cleavage is reported as 0. Variant U37G A70U has a self-cleavage of 0.229. In the case of U37C U65A, the self-cleavage is reported as 0.929. Variant U37C U65C has a self-cleavage of 1.05. U37C G52A gave a self-cleavage of 1.25. In the case of U37C G52U, the self-cleavage is reported as 0.997. Work on U37G G68C yielded a self-cleavage of 0.246. U37G G68U gave a self-cleavage of 0.128. In the case of U37G G68A, the self-cleavage is reported as 0.246. For U37C U69A, the self-cleavage was 0.9. U37C U69G gave a self-cleavage of 1.19. In the case of U37C C57U, the self-cleavage is reported as 0.875. U37C C57A showed a self-cleavage of 1. With G38A A51C the self-cleavage was 0.212. U37G C48A showed a self-cleavage of 0.277. G38A A43C gave a self-cleavage of 0.0449. U37C G55U showed a self-cleavage of 1.13. Work on U37C C75G yielded a self-cleavage of 0.0627. For U37C C75A, the self-cleavage was 0.177. In the case of U37C C75U, the self-cleavage is reported as 0.0997. For U37G C75G, the self-cleavage was 0. With U37G A78U the self-cleavage was 0. With U37G A78C the self-cleavage was 0.196. U37G A45G showed a self-cleavage of 0.0692. For U37G G52U, the self-cleavage was 0.198. U37G G50U gave a self-cleavage of 0.135. In the case of U37G G50A, the self-cleavage is reported as 0.113. With U37G G50C the self-cleavage was 0.185. In the case of U37G C41U, the self-cleavage is reported as 0.156. With U37G C41A the self-cleavage was 0. With U37G C41G the self-cleavage was 0.332. U37G G38C gave a self-cleavage of 0.192. For U37G G40A, the self-cleavage was 0.302. Work on U37G G40C yielded a self-cleavage of 0.0519. Work on U37G U46A yielded a self-cleavage of 0. In the case of U37G U46G, the self-cleavage is reported as 0.332. U37C C85A showed a self-cleavage of 1.16. U37C C85G gave a self-cleavage of 0.95. U37C C85U showed a self-cleavage of 1.01. U37C G38U showed a self-cleavage of 0.0773. U37G C85A gave a self-cleavage of 0.0875. U37C A70G gave a self-cleavage of 1.23. In the case of U37C A51C, the self-cleavage is reported as 0.966. For U37C A51U, the self-cleavage was 0.923. Variant U37C G54U has a self-cleavage of 1.02. U37C G54A gave a self-cleavage of 1.11. Work on U37C G54C yielded a self-cleavage of 1.13. For U37C A71C, the self-cleavage was 0.917. In the case of U37C A71G, the self-cleavage is reported as 0.751. U37C A71U showed a self-cleavage of 0.807. U37C G59C gave a self-cleavage of 1.16. U37C G59U showed a self-cleavage of 1.25. With U37G C62U the self-cleavage was 0.308. In the case of U37C G76A, the self-cleavage is reported as 0.972. U37G C66A gave a self-cleavage of 0.199. For U37G C66G, the self-cleavage was 0.135. In the case of U37C C49A, the self-cleavage is reported as 1.31. U37C C49U gave a self-cleavage of 0.928. In the case of U37C U79G, the self-cleavage is reported as 0.465. Variant U37C U79A has a self-cleavage of 0.554. Work on U37C U46G yielded a self-cleavage of 0.787. With U37C U46C the self-cleavage was 0.914.
